Consider one substance from patent publication US20170363643A1.

Assay [1] deals with His-tagged recombinant human SMN protein (ProteinTech, catalog # ag14333) (human) (UniProt Q16637). In words: Erenna sandwich assay, capture MABE230 12.5 µg/mg MPs; Det Ab 500 ng/mL; SMN 0.23 pg/mL.
Assay [2] shares this target. In words: Erenna sandwich assay, capture MABE230 12.5 µg/mg MPs; Det Ab 500 ng/mL; SMN 7.41 pg/mL.
Assay [3] has the same target. Nature of the assay: Erenna sandwich assay, capture MABE230 12.5 µg/mg MPs; Det Ab 1000 ng/mL; SMN 0.12 pg/mL.
The target is the same in assay [4]. In words: Erenna sandwich assay, capture MABE230 12.5 µg/mg MPs; Det Ab 500 ng/mL; SMN 66.67 pg/mL.
Assay [5] has the same target. In words: Erenna sandwich assay, capture MABE230 12.5 µg/mg MPs; Det Ab 1000 ng/mL; SMN 22.22 pg/mL.
Assay [6] has the same target. Nature of the assay: Erenna sandwich assay, capture MABE230; SMN 2 pg/mL, MPs 5 µg/well, Det Ab 50 ng/mL, Cap Ab/MP 12.5 µg/mg.
Assay [7] has the same target. Nature of the assay: Erenna sandwich assay, capture MABE230; SMN 2 pg/mL, MPs 10 µg/well, Det Ab 1000 ng/mL, Cap Ab/MP 25 µg/mg.
Assay [8] shares this target. Nature of the assay: Erenna sandwich assay, capture MABE230; SMN 2 pg/mL, MPs 5 µg/well, Det Ab 500 ng/mL, Cap Ab/MP 12.5 µg/mg.
For assay [9] the target is unchanged. Nature of the assay: Erenna sandwich assay, capture MABE230; human CSF sample 1 spiked with recombinant SMN 10.0 pg/mL (endogenous SMN also present).
For assay [10] the target is unchanged. In words: Erenna sandwich assay, capture MABE230; human CSF sample 5 spiked with recombinant SMN 10.0 pg/mL (endogenous SMN also present).

UniProt Q16637, sequence (Q16637 whole entry): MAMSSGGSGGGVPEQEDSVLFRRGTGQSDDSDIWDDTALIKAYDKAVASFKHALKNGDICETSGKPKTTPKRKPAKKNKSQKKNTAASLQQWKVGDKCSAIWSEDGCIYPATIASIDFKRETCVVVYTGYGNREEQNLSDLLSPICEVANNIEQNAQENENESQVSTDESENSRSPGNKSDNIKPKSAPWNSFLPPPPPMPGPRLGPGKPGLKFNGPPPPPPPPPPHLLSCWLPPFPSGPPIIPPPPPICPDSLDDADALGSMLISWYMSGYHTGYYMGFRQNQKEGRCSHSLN

In the case of “ProteinTech anti-SMN2 (catalog #60154-1-Ig) (antibody)”, the detected events (DE) (detected events) in assay [1] was determined as 301; in [2] it was 5960; in assay [3], 193; in [4], 12000; in assay [5] it was 13100; in [6], 450. Moreover, the detected events (DE) (detected events) in assay [7] was found to be 2670; in assay [8], 1950; in assay [9], 9730; in assay [10] it was 9440. The event photons (EP) (event photons) was 40000 in assay [1]; 1.05e+06 in assay [2]; 26300 in assay [3]; 9.53e+06 in assay [4]; 4.64e+06 in [5].
